T1: Verrocchio (Ver), wild type, Flag-tagged (D. melanogaster, UniProt Q9VTZ2 1-214)
T1 construct: Verrocchio (Ver), Terminin subunit of D. melanogaster; also called wild-type Ver; source: Arctic express cells (DE3), co-expressed with Moi-HA from a bicistronic pET vector; cell lysate, heparin-sepharose fractions, anti-FLAG M2 eluate; not shown: Flag, N-terminal, kept
T1 sequence (looked up): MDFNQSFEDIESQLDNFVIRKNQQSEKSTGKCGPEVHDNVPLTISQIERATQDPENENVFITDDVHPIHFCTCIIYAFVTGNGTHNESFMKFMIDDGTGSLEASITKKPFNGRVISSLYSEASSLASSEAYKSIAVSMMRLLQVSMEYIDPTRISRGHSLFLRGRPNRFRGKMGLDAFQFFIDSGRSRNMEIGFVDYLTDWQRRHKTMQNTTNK

B1: Modigliani (Moi), HA-tagged at the C-terminus (natural protein, D. melanogaster, UniProt B7Z0L8 1-178, looked up)
chain: MSLVPEASTSRAPKYCYFFKTLLVEELELETSYHNLHYGQCALIGRLAFKANQYRLENVRVKCLPKKYSLGEGTVSLLILGLTHDKVVENRVSTGRYCIVRGEVVLHNVQHPKGAKLTAGGVYDKINSLSNDPLAQKQYLSALLATYRPAIDLWYIQVIDRAEDLLTRRLEMRSLIEK
notes: DTL/Modigliani (Moi), Terminin subunit of D. melanogaster; also called DTL; source: Arctic express cells (DE3), co-expressed with Ver from a bicistronic pET vector; cell lysate, heparin-sepharose fractions, anti-FLAG M2 eluate; not shown: HA, C-terminal, kept

Legend:
[1] = test system: Ver (wild type);Moi (Drosophila melanogaster;Drosophila melanogaster); test: BLI; settings: PBS + 0.05% Tween 20, BLI and EMSA: PBS (137 mM NaCl, 2.7 mM KCl, 10 mM Na2HPO4, 1.8 mM KH2PO4) + 0.05% Tween 20, EMSA 15 min at room temperature, 20 fmol ssDNA, pull-down: 4 C …
[2] = test system: Ver (wild type);Moi (Drosophila melanogaster;Drosophila melanogaster); test: pull-down; settings: reference; BLI and EMSA: PBS (137 mM NaCl, 2.7 mM KCl, 10 mM Na2HPO4, 1.8 mM KH2PO4) + 0.05% Tween 20, EMSA 15 min at room temperature, 20 fmol ssDNA; pull-down: 4 C …
[3] = biological target: M1-Ver (Ver with the Group 1 uncharacterized helices deleted), Flag-tagged (D. melanogaster) (UniProt Q9VTZ2); test: co-IP; Flag immune-affinity purification: heparin-sepharose fractions loaded on anti-FLAG M2 affinity matrix, washed with buffer I (25 mM Tris HCl pH 7.5, 100 mM NaCl, 1 mM CaCl2, 1 mM MgCl2) or PBS, eluted with 3× Flag peptide
[4] = biological target: M3-Ver (Ver with the putative DNA binding surface, Group 3, partially deleted), Flag-tagged (D. melanogaster) (UniProt Q9VTZ2); test: as above
[5] = biological target: T1, Verrocchio (Ver), wild type, Flag-tagged; test: as above; settings: partners not purified

Molecule | Kd ([1]; Kd1, heterogeneous ligand (2:1) model) [nM] | Kd ([1]; Kd2, heterogeneous ligand (2:1) model) [nM] | binding signal (fraction of Moi eluted from ssDNA) [2] | stoichiometry N [3] | stoichiometry N [4] | stoichiometry N [5]
80 nt ssDNA | 129 | 1570 | 1 |  |  | 
B1 |  |  |  | 1 | 1 | ~1

— publication PMC8596017, “Evolutionary mode for the functional preservation of fast-evolving Drosophila telomere capping proteins” (Open Biology, 2021)
